# Literature values, collected in PMC4388261.
# Biological target: Glu35 (UniProt position 53, CAAKFESNFNT)
# Conditions: not stated (wild-type HEWL; the literature range pools several studies)
substance,measurement,value
"Hen egg-white lysozyme (HEWL, lysozyme C) (Gallus gallus)",pKa,6.0–6.8
